The term EC50 denotes the concentration at which the effect is half-maximal. As a reminder, the Ki is the equilibrium dissociation constant of an inhibitor or competing ligand from its target. Lower therefore signals a stronger hold on the target.

Among the data in article PMC12396273 are EC50 and Ki values, retold here.

Experiment in all cases: fluorescence polarisation
Assay [1] addresses FITC-labelled HRK-BH3 peptide.
For assay [2], the target named is Human BCL-XL removing the C-terminal 22 residues, C-terminal 6×His-tag (human) (UniProt Q07817).
Sequence of UniProt Q07817 (Q07817 1-211): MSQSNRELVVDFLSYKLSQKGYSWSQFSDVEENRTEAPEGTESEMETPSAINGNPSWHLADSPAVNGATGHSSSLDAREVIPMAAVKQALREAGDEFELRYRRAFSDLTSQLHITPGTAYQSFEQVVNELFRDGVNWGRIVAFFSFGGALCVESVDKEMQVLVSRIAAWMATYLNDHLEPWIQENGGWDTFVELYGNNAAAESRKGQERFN
The target of assay [3] is Human BCL-2 removing the C-terminal 32 residues, C-terminal 6×His-tag (human) (UniProt P10415).

With “Human BCL-2 removing the C-terminal 32 residues, C-terminal 6×His-tag (from UniProt P10415 1-207) (domain or fragment)”, the EC50 in assay [1] was found to be 0.03 µM.

As for wild-type HRK-BH3 peptide (HRK-WT), the inhibitory constant (Ki) in assay [2] came out at 0.0018 µM; in assay [3], 0.036 µM.
